From the supplement of paper PMC10724198
± gives the standard deviation of the averaged measurements.

System: Saccharomyces cerevisiae
Assay: protein stability index of tFT-peptide fusion (C-terminal peptide) (PSI (0-1 scale)); higher = more stable (slower turnover)
Details: genetic background: wild type; temperature: 30 C
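Also: PSI is a weighted mean of sequencing reads over stability bins, variants kept only with over 10 reads, mCherry proximal and sfGFP distal, peptide attached via GGGS linker.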

Row | Sequence | protein stability index
1 | PHPDPDHCHAPP | 0.713 ± 0.1
2 | PHPHLPPARSPP | 0.675 ± 0.019
3 | PHPPPPHPPPPP | 0.644 ± 0.027
4 | PHRPRDFALTPS | 0.6905 ± 0.0048
5 | PHRSTRIDVDPC | 0.837 ± 0.12
6 | PHRSVSRLTILS | 0.658 ± 0.012
7 | PHSDGVRLAEGF | 0.713 ± 0.077
8 | PHSTTGPPPPLT | 0.695 ± 0.041
9 | PHSVPPLTFPTS | 0.689 ± 0.037
10 | PHVGSGDGVMKA | 0.598 ± 0.038
11 | PHYRYLHPSPPP | 0.704 ± 0.0073
12 | PIELTLQRPPGV | 0.671 ± 0.031
13 | PIGLTCPASSVL | 0.692 ± 0.046
14 | PILFHIPHRHVP | 0.749 ± 0.25
15 | PIPLPLSPPLPT | 0.73 ± 0.011
16 | PIPPDGGSPPSP | 0.714
17 | PIPPDPPAYQGQ | 0.6426 ± 0.0064
18 | PIPPPPPPPSSP | 0.699 ± 0.0086
19 | PITKLHRHYARG | 0.6972 ± 0.0015
20 | PIWWSRSALLAE | 0.671 ± 0.023
21 | PKQMVVRRSRRP | 0.695 ± 0.07
22 | PKVRAGYSYEVM | 0.673 ± 0.019
23 | PKYKKKNNKKKT | 0.709 ± 0.058

Row | Sequence | protein stability index
24 | PLAGLWPCRSGS | 0.669 ± 0.016
25 | PLALRPPFSHGL | 0.698 ± 0.024
26 | PLAPNYPANTGT | 0.69 ± 0.021
27 | PLAPPTSASRFS | 0.6466 ± 0.0027
28 | PLAPYPPLPPPP | 0.69 ± 0.027
29 | PLCCHRSTGCTL | 0.676 ± 0.022
30 | PLCPPPPYPPRS | 0.745 ± 0.043
31 | PLFLSLPLSFPS | 0.697 ± 0.0058
32 | PLGDIRPSPRDS | 0.681 ± 0.0086
33 | PLILFLSLSRSV | 0.613 ± 0.066
34 | PLILRSLFIFPV | 0.641 ± 0.037
35 | PLLDPFFPLVFT | 0.58 ± 0.019
36 | PLLLPPVPPFCF | 0.674 ± 0.12
37 | PLLPPSDTCSLL | 0.718 ± 0.089
38 | PLLPSLPPLLAP | 0.651 ± 0.05
39 | PLLPSPLIPFSH | 0.688 ± 0.026
40 | PLLPSPPHSPTP | 0.657 ± 0.045
41 | PLLPSPPLPCFF | 0.765 ± 0.029
42 | PLLQALLPPAPP | 0.632 ± 0.026
43 | PLLSPLPSHPHP | 0.815 ± 0.058
44 | PLPAFPRLAIQP | 0.691 ± 0.021
45 | PLPAISPPPTLP | 0.758 ± 0.036
46 | PLPAPRHNALTT | 0.6137 ± 0.0045

Row | Sequence | protein stability index
47 | PLPASFPPFPTL | 0.802 ± 0.036
48 | PLPCPRGHDHPA | 0.688 ± 0.068
49 | PLPCSSLLVPLP | 0.627 ± 0.058
50 | PLPLASVTPPYL | 0.669 ± 0.0067
51 | PLPLPLASSFPS | 0.627 ± 0.059
52 | PLPLPPPPHPSL | 0.723 ± 0.041
53 | PLPLPPPPPLPL | 0.657 ± 0.041
54 | PLPLPPSPPFQF | 0.751 ± 0.011
55 | PLPPFPPHNLRA | 0.733 ± 0.082
56 | PLPPHRLPYPRL | 0.81 ± 0.025
57 | PLPPLPPPFLPP | 0.641 ± 0.1
58 | PLPPPAFPPLDP | 0.671 ± 0.021
59 | PLPPPLLPPSSS | 0.7302 ± 0.0013
60 | PLPPPLPPPSPP | 0.647 ± 0.033
61 | PLPPPPALILFP | 0.6856 ± 0.003
62 | PLPPPPIPLAPP | 0.708 ± 0.054
63 | PLPPPPPLLPTC | 0.669 ± 0.037
64 | PLPPPPPPPPLP | 0.767 ± 0.024
65 | PLPPPPPPSFPP | 0.769 ± 0.057
66 | PLPPPPTLSCTQ | 0.701 ± 0.11
67 | PLPPPRPLPTPL | 0.69 ± 0.055
68 | PLPPPSASPLPP | 0.539 ± 0.044
69 | PLPPPTSPPSPP | 0.749 ± 0.11

Row | Sequence | protein stability index
70 | PLPPSLRPALSP | 0.7188 ± 0.00078
71 | PLPPSPLPRPCP | 0.761 ± 0.054
72 | PLPRPPRLVFSS | 0.5 ± 0.012
73 | PLPRPPSPPPAP | 0.68 ± 0.12
74 | PLPRPVLPPLFS | 0.739 ± 0.073
75 | PLPSHPPRPLPP | 0.67 ± 0.05
76 | PLPSPPSPPPPP | 0.693 ± 0.0091
77 | PLPSQYANPMIL | 0.664 ± 0.0051
78 | PLPSSRSPSPPS | 0.711 ± 0.038
79 | PLPTSMNTHALV | 0.683 ± 0.079
80 | PLQPPHSPPFPP | 0.7 ± 0.028
81 | PLRFLLPLLLPF | 0.582 ± 0.0087
82 | PLRGPPPPPLPI | 0.677 ± 0.07
83 | PLSLIRFSAFQS | 0.486 ± 0.036
84 | PLSLPAPPPRPR | 0.654 ± 0.017
85 | PLSLPPPPPSLP | 0.723 ± 0.022
86 | PLSLPPRPFLHH | 0.735 ± 0.017
87 | PLSLSSPPLFLL | 0.639 ± 0.0006
88 | PLSPLHHCPLSP | 0.666 ± 0.039
89 | PLSPLPPSPGPS | 0.766 ± 0.051
90 | PLSPPLLPPPPP | 0.688 ± 0.014
91 | PLSPPLLPPTTL | 0.706 ± 0.086
92 | PLSPPLPRPPPL | 0.649 ± 0.11

Row | Sequence | protein stability index
93 | PLSPPPVNIPPT | 0.733 ± 0.039
94 | PLSPSFPPLSPP | 0.78 ± 0.12
95 | PLSRVEGRVPAI | 0.6663 ± 0.0039
96 | PLSSPFPPSHPL | 0.763 ± 0.029
97 | PLSVPHQPLCPV | 0.686 ± 0.028
98 | PLSVPPMSSLLP | 0.7202 ± 0.0068
99 | PLTFARLPPPTL | 0.678 ± 0.021
100 | PLTSIDTDPPHI | 0.723 ± 0.022
101 | PLWRPLALSHVS | 0.67 ± 0.012
102 | PLYRPCPGSRRA | 0.745 ± 0.0097
103 | PMIENQQIDKTN | 0.649 ± 0.0095
104 | PMMTKDEFNNRM | 0.702 ± 0.015
105 | PMRAALIIFLVR | 0.5 ± 0.1
106 | PMVETKVGGIAN | 0.705 ± 0.043
107 | PMYKYKTSQKDL | 0.6567 ± 0.0057
108 | PNFSLPSLPHFP | 0.747 ± 0.017
109 | PNPPPPRPTPTP | 0.6688 ± 0.0049
110 | PNVHMRVFELFM | 0.72 ± 0.054
111 | PPALLRLTSSAR | 0.702 ± 0.026
112 | PPALPPVPPYPL | 0.673 ± 0.073
113 | PPAPARFPFLPA | 0.6696 ± 0.001
114 | PPAPPEPRIVRR | 0.684 ± 0.076
115 | PPAPPFPAPPPR | 0.628 ± 0.028

Row | Sequence | protein stability index
116 | PPAPPHHPPPSS | 0.679 ± 0.036
117 | PPAPPPLPLPLF | 0.72 ± 0.0079
118 | PPARPDCGIRTP | 0.672 ± 0.026
119 | PPASLFFPPLSP | 0.756 ± 0.13
120 | PPASRPPPPTFL | 0.699 ± 0.047
121 | PPCPGPLPPPPP | 0.6663 ± 0.0025
122 | PPCPSSPHARPA | 0.69824 ± 0.00052
123 | PPCRRGRTHGVY | 0.685 ± 0.024
124 | PPDLPVPRPSFR | 0.571
125 | PPDPPLHPPPSS | 0.733 ± 0.13
126 | PPEPVRHTSGLS | 0.807 ± 0.059
127 | PPFLDLSLPHIC | 0.589 ± 0.016
128 | PPFPPPPRPADH | 0.741 ± 0.023
129 | PPFTPLPPSVPP | 0.686 ± 0.03
130 | PPFTPLSCLPPP | 0.708 ± 0.038
131 | PPGAPPYPSPPP | 0.569 ± 0.092
132 | PPGCPCPASTGS | 0.6916 ± 0.004
133 | PPGPGRAPVRPA | 0.623 ± 0.033
134 | PPGPLPTPPYPP | 0.545 ± 0.035
135 | PPGPPLPRPRRP | 0.694 ± 0.043
136 | PPGQPPARSSPV | 0.706 ± 0.013
137 | PPGYPLCLPLGF | 0.7018 ± 0.0035
138 | PPHAPLPPPLAL | 0.7219 ± 0.0072

Row | Sequence | protein stability index
139 | PPHAPPPPPHVP | 0.713 ± 0.039
140 | PPHLIPTLLSPP | 0.721 ± 0.02
141 | PPHLPPPRPKPP | 0.592 ± 0.028
142 | PPHQPRTPNSPP | 0.68 ± 0.034
143 | PPHRPPTRPRPR | 0.64 ± 0.0094
144 | PPHSSPPPPPPS | 0.715 ± 0.028
145 | PPHSTPPTGRPG | 0.753 ± 0.014
146 | PPIALTPRTPAP | 0.747 ± 0.097
147 | PPILHPPPDIPG | 0.701 ± 0.042
148 | PPISVIRKPTVL | 0.667 ± 0.066
149 | PPLARLASPSRL | 0.7006 ± 0.0036
150 | PPLARPPLPAPF | 0.6998 ± 0.0022
151 | PPLGITHPSFPS | 0.787 ± 0.025
152 | PPLGMPLYHPRP | 0.7426 ± 0.0021
153 | PPLGPTSARALA | 0.619 ± 0.014
154 | PPLLDLATYSSS | 0.697 ± 0.061
155 | PPLLPPLPFPPP | 0.74 ± 0.076
156 | PPLLTPPSTLFS | 0.661 ± 0.022
157 | PPLPFSRSPSSL | 0.69 ± 0.019
158 | PPLPLPLPPPTP | 0.767 ± 0.088
159 | PPLPPLPLAPPY | 0.6927 ± 0.005
160 | PPLPPLPPLSVS | 0.675 ± 0.029
